The values that follow come from patent US20230391859A1 (Novo Nordisk, published 2023).

By koff is commonly meant the first-order rate constant of dissociation. Lower therefore signals slow dissociation.

Test [1] deals with T1, aggregated TTR (UniProt P02766 21-147). Briefly: BIACORE (SPR); off-rate from amyloid (aggregated TTR). (Surface plasmon resonance follows binding to a sensor surface in real time, without labels.)
Test [2] concerns the target T2, monomeric TTR (UniProt P02766 21-147). Kind of test: BIACORE (SPR); off-rate from monomers.
The target of test [3] is T1, aggregated TTR. Briefly: BIACORE (SPR), apparent affinity with avidity; aggregated TTR; apparent affinity (affinity+avidity).
Test [4] addresses T1, aggregated TTR. Briefly: BIACORE (SPR), apparent affinity with avidity; same value in mass units; same KD in mass units.
Test [5] deals with T2, monomeric TTR. Briefly: BIACORE (SPR); monomeric TTR (affinity).

B1: PRX004 (antibody, human IgG1, kappa, V domains shown)
VH: EVQLVESGGGLVQPGGSLKLSCAASGFTFSSYTMSWVRQTPEKRLELVAEINNSGDTTYYPDTVKGRFTISRDNAKNTLYLQMSSLKSEDTAMYYCARHYYYGGGYGGWFFDVWGQGTLVTVSS
VL: DIVMTQSPLSLPVTPGEPASISCRSSKSLLHSNGNTYLYWFLQKPGQSPQLLIYRVSNLASGVPSRFSGSGSGTDFTLKISRVEAEDVGVYYCMQHLEYPLTFGQGTKLEIKR
notes: Humanized IgG1 kappa monoclonal antibody; also called humanized immunoglobulin (Ig) G1 kappa mAb
With B1, the results for the koff in test [1] and in test [2] were 0.0002 s⁻¹ and 0.0037 s⁻¹, respectively. In addition, the Kd in test [3] stood at 3.2 nM; in test [4], 0.48 µg/mL; in test [5], 134 nM.
